Measurements from PMC9712689 (Communications Biology, 2022).

T1: RlpA-Δ32·MltF2 complex (MST) (P. aeruginosa PAO1, UniProt Q9X6V6;Q9HZY1, amine reactive RED-NHS dye)
T1 sequence 1: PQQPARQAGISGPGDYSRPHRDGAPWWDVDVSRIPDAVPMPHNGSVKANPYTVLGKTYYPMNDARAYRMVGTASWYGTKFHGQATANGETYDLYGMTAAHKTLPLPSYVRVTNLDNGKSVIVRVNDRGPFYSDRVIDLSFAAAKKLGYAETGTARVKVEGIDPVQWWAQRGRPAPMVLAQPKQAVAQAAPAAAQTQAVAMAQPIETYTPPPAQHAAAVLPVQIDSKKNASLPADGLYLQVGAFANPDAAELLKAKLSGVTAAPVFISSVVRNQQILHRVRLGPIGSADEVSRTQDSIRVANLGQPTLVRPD
T1 sequence 2: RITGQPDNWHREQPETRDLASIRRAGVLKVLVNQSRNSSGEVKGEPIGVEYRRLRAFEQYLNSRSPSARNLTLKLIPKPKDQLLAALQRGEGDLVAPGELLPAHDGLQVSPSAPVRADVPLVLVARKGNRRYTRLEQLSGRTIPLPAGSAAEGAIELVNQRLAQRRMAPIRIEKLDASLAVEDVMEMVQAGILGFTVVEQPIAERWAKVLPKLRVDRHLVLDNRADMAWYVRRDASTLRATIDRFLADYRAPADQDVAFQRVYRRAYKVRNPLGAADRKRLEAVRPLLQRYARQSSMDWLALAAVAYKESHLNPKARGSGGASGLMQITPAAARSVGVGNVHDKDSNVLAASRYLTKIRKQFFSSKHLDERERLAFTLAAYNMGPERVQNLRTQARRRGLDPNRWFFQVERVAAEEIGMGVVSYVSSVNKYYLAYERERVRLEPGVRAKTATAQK

T2: RlpA-Δ32, fluorescently labeled (P. aeruginosa PAO1, UniProt Q9X6V6 32-342, amine reactive RED-NHS dye)
T2 construct: source: E. coli BL21-star (DE3), purified (Ni-NTA), labelled with RED-NHS dye
T2 sequence: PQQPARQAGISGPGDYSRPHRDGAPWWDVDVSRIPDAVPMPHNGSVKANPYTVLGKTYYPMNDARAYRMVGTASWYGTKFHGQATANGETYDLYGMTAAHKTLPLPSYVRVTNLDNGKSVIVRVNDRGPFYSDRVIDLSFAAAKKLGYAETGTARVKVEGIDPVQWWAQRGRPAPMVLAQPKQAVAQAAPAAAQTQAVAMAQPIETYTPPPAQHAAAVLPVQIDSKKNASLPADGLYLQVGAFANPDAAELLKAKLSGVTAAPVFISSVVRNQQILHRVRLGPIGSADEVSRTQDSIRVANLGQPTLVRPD

T3: RlpA-Δ32 (P. aeruginosa PAO1, UniProt Q9X6V6 32-342)
T3 construct: source: E. coli BL21-star (DE3), purified (Ni-NTA)
T3 sequence: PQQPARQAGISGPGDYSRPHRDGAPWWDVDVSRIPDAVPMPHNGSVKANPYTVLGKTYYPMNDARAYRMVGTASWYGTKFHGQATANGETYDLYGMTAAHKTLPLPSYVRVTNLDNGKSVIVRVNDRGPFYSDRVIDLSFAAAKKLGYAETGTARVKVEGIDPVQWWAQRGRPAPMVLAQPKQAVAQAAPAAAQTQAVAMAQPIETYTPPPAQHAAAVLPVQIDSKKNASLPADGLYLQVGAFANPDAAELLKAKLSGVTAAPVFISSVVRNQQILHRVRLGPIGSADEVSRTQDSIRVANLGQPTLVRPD

T4: MltF2 (P. aeruginosa PAO1, UniProt Q9HZY1 1-476)
T4 sequence (looked up): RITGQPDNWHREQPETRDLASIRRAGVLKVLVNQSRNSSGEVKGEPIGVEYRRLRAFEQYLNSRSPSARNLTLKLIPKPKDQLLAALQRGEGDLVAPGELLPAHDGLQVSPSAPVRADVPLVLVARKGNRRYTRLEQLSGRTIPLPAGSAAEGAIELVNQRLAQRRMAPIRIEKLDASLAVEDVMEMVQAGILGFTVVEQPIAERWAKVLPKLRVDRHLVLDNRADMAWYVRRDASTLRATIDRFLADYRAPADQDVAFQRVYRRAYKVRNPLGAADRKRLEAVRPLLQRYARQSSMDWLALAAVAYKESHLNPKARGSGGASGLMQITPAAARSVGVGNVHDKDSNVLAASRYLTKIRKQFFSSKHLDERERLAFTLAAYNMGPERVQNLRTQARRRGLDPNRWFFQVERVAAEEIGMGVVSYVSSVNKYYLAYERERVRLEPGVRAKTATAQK

T5: MltD (P. aeruginosa PAO1, UniProt Q9I2T2 1-534)
T5 sequence (looked up): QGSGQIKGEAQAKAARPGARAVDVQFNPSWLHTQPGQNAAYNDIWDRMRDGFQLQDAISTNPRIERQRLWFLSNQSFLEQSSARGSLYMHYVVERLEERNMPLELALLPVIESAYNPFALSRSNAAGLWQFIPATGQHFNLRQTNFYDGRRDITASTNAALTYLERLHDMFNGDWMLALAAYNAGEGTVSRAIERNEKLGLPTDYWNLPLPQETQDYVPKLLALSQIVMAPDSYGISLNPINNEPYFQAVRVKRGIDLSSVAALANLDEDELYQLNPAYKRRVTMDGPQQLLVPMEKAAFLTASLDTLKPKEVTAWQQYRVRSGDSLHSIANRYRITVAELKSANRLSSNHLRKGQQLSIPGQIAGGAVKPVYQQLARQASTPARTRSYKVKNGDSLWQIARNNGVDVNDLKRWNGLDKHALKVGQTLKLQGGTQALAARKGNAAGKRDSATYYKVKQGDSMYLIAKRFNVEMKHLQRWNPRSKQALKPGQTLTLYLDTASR

T6: TypA (P. aeruginosa PAO1, UniProt Q9HU67 1-605)
T6 sequence (looked up): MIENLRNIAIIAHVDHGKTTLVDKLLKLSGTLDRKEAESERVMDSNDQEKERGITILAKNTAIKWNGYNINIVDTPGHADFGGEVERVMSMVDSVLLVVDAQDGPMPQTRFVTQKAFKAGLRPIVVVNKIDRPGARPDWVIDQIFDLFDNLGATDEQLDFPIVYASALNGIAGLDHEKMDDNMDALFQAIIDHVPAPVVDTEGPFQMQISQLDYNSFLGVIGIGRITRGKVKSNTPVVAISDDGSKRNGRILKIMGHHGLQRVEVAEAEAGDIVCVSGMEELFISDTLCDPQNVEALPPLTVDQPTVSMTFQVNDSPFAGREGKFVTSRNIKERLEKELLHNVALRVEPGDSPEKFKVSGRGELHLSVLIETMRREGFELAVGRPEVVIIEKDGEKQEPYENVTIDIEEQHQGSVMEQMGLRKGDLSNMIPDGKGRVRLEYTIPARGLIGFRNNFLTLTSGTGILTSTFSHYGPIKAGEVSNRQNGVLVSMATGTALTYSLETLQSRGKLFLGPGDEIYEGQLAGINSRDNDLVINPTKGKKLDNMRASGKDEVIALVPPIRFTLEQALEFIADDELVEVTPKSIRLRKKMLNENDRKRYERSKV

B1: PilA (natural protein)
chain: PQYQNYVARSEGASALATINPLKTTVEESLSRGIAGSKIKIGTTASTATETYVGVEPDANKLGVIAVAIEDSGAGDITFTFQTGTSSPKNATKVITLNRTADGVWACKSTQDPMFTPKGCDN
notes: source: E. coli, purified (Ni-NTA or Strep-Tactin)
B2: SltB1 (enzyme, P. aeruginosa PAO1, UniProt Q9HX24 1-340, looked up)
chain: GDYDGSPQVAEFVSEMTRDYGFAGEQLMGLFRDVNRKQSILDAISRPAERVKQWKEYRPIFISDARISRGVDFWNKHAEDLARAEKEYGVPAEIIVSIIGVETFFGRNTGSYRVMDALSTLGFDYPPRADFFRKELREFLLLAREQQVDPLSLTGSYAGAMGLPQFMPSSFRAYAVDFDGDGHINIWSDPTDAIGSVASYFKQHGWVTGEPVVSVAEINDESAESAVTRGVDPTMSLGELRARGWRTHDALRDDQKVTAMRFVGDKGIEYWVGLPNFYVITRYNRSAMYAMAVYQLAGEIARARGAH
B3: PilO (natural protein)
chain: YNFHLSDMQAQLEQQAAEEETLKQQFSTKAFQAANLEAYKAQMKEMEESFGALLRQLPSDTEVPGLLEDITRTGLGSGLEFEEIKLLPEVAQQFYIELPIQISVVGGYHDLATFVSGVSSLPRIVTLHDFEIKPVAPGSTSKLRMSILAKTYRYNDKGLKK
notes: as for B1
B4: PA2854 (natural protein)
chain: LELQLPPPGEDVVGQVQVIKAKYEDTFADLGEQYNLGYSEMVAANPGVDPWLPGVGTEVIIPTRFVLPPGPREGVVINLAEYRLYYYPKGQNVVHTYPLGIGREGWGSPIANTRITAKTKDPAWYPPASIRAEHAADGDPLPTVVPPGPDNPLGPYKLTLGVPGYLIHGSNKKFGIGTRTSHGCFRMYNADVTHLFSMISVGTSVRIINEPYKFGVSNGKVYLEAHTPLNDHGDPSVVDKHTAVINTLLKRDDLAKRIQLNWDVVREVVASEDGVPVEIAQESAPAMTATVDSDPTQLTP
notes: as for B1
B5: LptE (natural protein)
chain: not shown
B6: RlpA-Δ81 (domain or fragment)
chain: YTVLGKTYYPMNDARAYRMVGTASWYGTKFHGQATANGETYDLYGMTAAHKTLPLPSYVRVTNLDNGKSVIVRVNDRGPFYSDRVIDLSFAAAKKLGYAETGTARVKVEGIDPVQWWAQRGRPAPMVLAQPKQAVAQAAPAAAQTQAVAMAQPIETYTPPPAQHAAAVLPVQIDSKKNASLPADGLYLQVGAFANPDAAELLKAKLSGVTAAPVFISSVVRNQQILHRVRLGPIGSADEVSRTQDSIRVANLGQPTLVRPD
notes: source: E. coli BL21-star (DE3), purified (Ni-NTA)
B7: PA4063 (natural protein)
chain: HDDHDHDHAHGSLGKHEHGVAQLNVALDGKTLELELDSPAMNLVGFEHAASTDADKAAVAKARAQLEKPLELFALPVTAGCSVASQELRSPLFGDKAPAHAHKEKAGHEHEHEHEHEHGHADIHAHYQLSCEKPELLKLLTLAEFFKRFPATQKIQVQLIGPDGQKGADLAPASAELKL
notes: as for B1
B8: PBP7 (enzyme, P. aeruginosa PAO1, UniProt P72161 24-310, looked up)
chain: SPPPKAGLPLQQELASGSALVTDQNTGKVLYSRNPDLVVPIASITKLMTAMVVLDSKLPLDEVLPIAISETSEMRGVFSRVRVGSQISRRDMLLLALMSSENRAAASLAQNYPGGKNAFVKAMNAKAHALGMKNTRYVEPTGLSLHNVSTARDLTRLLVASRQYPLLSQWSTTPEKTVAFRHPNYTLGFRNTNHLINNKTWNIQLTKTGFTNEAGHCLVMRTTINRSPVNLVVLDAFGKYTHFADATRLRRWLETGQVTAIPAAAKAYRLQRDRERGLGQPVAQAVR

Assays:
Details in all cases: both partners purified
[1] = molecular target: T1, RlpA-Δ32·MltF2 complex (MST); assay: MST
[2] = molecular target: T2, RlpA-Δ32, fluorescently labeled; assay: MST
RlpA-Δ32 = molecular target: T3, RlpA-Δ32; assay: SPR
RlpA-Δ81 = molecular target: B6; assay: SPR
PA2854 = molecular target: B4; assay: SPR
PBP1a = PBP1a (P. aeruginosa PAO1, UniProt Q07806 27-822); assay: SPR
MltF2 = molecular target: T4, MltF2; assay: SPR
MltD = molecular target: T5, MltD; assay: SPR
TypA = molecular target: T6, TypA; assay: SPR

Sequence of PBP1a (Q07806 27-822): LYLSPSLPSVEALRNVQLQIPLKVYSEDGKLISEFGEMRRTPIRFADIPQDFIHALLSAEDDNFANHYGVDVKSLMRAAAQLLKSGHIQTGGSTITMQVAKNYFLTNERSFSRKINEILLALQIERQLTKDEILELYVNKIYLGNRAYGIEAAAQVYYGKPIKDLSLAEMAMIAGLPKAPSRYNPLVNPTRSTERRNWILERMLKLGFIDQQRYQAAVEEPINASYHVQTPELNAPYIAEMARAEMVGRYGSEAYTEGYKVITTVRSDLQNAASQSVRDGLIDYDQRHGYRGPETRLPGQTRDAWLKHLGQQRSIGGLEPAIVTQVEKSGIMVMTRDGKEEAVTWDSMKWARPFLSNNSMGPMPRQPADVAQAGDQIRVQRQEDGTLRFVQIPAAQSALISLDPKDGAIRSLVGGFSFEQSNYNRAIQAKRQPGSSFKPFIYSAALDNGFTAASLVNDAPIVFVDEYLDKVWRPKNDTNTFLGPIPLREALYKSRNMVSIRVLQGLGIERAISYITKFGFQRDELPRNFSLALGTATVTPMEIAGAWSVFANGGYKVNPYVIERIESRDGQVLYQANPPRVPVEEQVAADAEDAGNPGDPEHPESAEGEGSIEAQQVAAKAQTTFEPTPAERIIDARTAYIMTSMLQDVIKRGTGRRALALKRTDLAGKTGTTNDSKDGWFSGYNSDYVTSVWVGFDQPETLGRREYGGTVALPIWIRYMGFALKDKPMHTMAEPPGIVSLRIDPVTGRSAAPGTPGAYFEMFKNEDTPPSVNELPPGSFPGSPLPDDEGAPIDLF

Binder	Kd [1]	Kd [2]	Kd (RlpA-Δ32)	koff (RlpA-Δ32)	kon (RlpA-Δ32)	also measured
B1	309 nM	240 nM	1980 nM	0.00218 s⁻¹	1100 M⁻¹ s⁻¹	–
B2	95 nM	140 nM	3850 nM	0.00127 s⁻¹	330 M⁻¹ s⁻¹	–
B3	208 nM	350 nM	3130 nM	0.00275 s⁻¹	880 M⁻¹ s⁻¹	Kd (RlpA-Δ81): 1010 nM; koff (RlpA-Δ81): 0.00076 s⁻¹; kon (RlpA-Δ81): 750 M⁻¹ s⁻¹
B4	55 nM	58 nM	65 nM	0.00032 s⁻¹	4900 M⁻¹ s⁻¹	–
B5	150 nM	77 nM	–	–	–	–
B6	–	–	–	–	–	Kd (PA2854): 2270 nM; koff (PA2854): 0.00075 s⁻¹; kon (PA2854): 330 M⁻¹ s⁻¹; Kd (PBP1a): 94 nM; koff (PBP1a): 0.00177 s⁻¹; kon (PBP1a): 18800 M⁻¹ s⁻¹; Kd (MltF2): 3 nM; koff (MltF2): 4e-05 s⁻¹; kon (MltF2): 14900 M⁻¹ s⁻¹; Kd (MltD): 56 nM; koff (MltD): 0.0039 s⁻¹; kon (MltD): 69000 M⁻¹ s⁻¹; Kd (TypA): 74 nM; koff (TypA): 0.00047 s⁻¹; kon (TypA): 6400 M⁻¹ s⁻¹
B7	105 nM	201 nM	810 nM	0.00145 s⁻¹	1800 M⁻¹ s⁻¹	Kd (RlpA-Δ81): 1080 nM; koff (RlpA-Δ81): 0.00194 s⁻¹; kon (RlpA-Δ81): 1800 M⁻¹ s⁻¹
B8	–	430 nM	–	–	5900 M⁻¹ s⁻¹	–
